Test results reported in US20240059760A1 (UNIVERSITY OF CHICAGO, published 2024).
Like-named read-outs stand apart in the source and are kept apart here.

How the values were obtained:
[1] = target: T1, Receptor Binding Domain (RBD) of SARS-CoV-2 S protein (SARS-CoV-2, UniProt P0DTC2 319-541)
[2] = target: T1, Receptor Binding Domain (RBD) of …; remark: listed apart in the source

B1: sRBD7 Fab (Fab, V domains shown)
VH: EVQLVESGGGLVQPGGSLRLSCAASGFNVYSSYIHWVRQAPGKGLEWVAYISPYYGSTYYADSVKGRFTISADTSKNTAYLQMNSLRAEDTAVYYCARYWSYGGMDYWGQGTLVTVSS
VL: DIQMTQSPSSLSASVGDRVTITCRASQSVSSAVAWYQQKPGKAPKLLIYSASSLYSGVPSRFSGSRSGTDFTLTISSLQPEDFATYYCQQYYYGALITFGQGTKVEIKR
B1 gave a Kd [1] of 2.55 nM, a koff [1] of 0.00029 s⁻¹ and a kon [1] of 150000 M⁻¹ s⁻¹.

B2: sRBD1.15 Fab (Fab, V domains shown)
VH: EVQLVESGGGLVQPGGSLRLSCAASGFNFHNSYIHWVRQAPGKGLEWVASISSYSGYTYYADSVKGRFTISADTSKNTAYLQMNSLRAEDTAVYYCARSYQGQEALDYWGQGTLVTVSS
VL: DIQMTQSPSSLSASVGDRVTITCRASQSVSSAVAWYQQKPGKAPKLLIYSASSLYSGVPSRFSGSRSGTDFTLTISSLQPEDFATYYCQQYLYFSLVTFGQGTKVEIKR
B2 was tested, and the Kd [2] was 0.1 nM, the koff [2] was 0.00011 s⁻¹ and the kon [2] was 1e+06 M⁻¹ s⁻¹.
